The values that follow come from patent US20080199426A1 (BETH ISRAEL DEACONESS MEDICAL CENTER, published 2008).

Assay [1] has as its target T1, thrombin-activated EphA2 (endogenous, from lysate of HUVECs stimulated with 1 U/ml thrombin for 5 mins) (human, UniProt P29317 24-976, tyrosine phosphorylated after thrombin stimulation (sites not given)).
T1 construct: Endogenous EphA2 in a HUVEC lysate, detected on the array with a biotinylated anti-human EphA2 antibody; No signal peptide limits are stated
In words: SH2 domain array with thrombin-stimulated HUVEC lysate, anti-EphA2 detection. The method, then: (§1) Methods: We used a phosphotyrosine profiling array to identify signaling pathways linked to EphA2 activation by thrombin. HUVECs were prepared and stimulated with 1 U/ml thrombin for 5 mins. TranSignal Phosphotyrosine Profiling Array (Panomics) was used according to the manufacturer's protocol, except that a biotinylated anti-human EphA2 (R & D) was used as the detection antibody.
(§2) Results: Confluent HUVECs were stimulated with thrombin for 5 mins to induce EphA2 phosphorylation. This stimulated lysate and an unstimulated lysate were used in the antibody array experiment. The concept of this array is similar to a far-western blot. On this array, the SH2 domains of 38 signaling molecules were spotted in duplicate. Upon incubation with a lysate, each of these SH2 domains will bind to its specific, tyrosine phosphorylated protein targets. When an anti-human EphA2 antibody was used for detection, any SH2 domains that are bound to EphA2 will appear as two dots in a specific location of the membrane. Therefore, pathways activated post EphA2 phosphorylation can be identified.

Assay [2] concerns the target T1, thrombin-activated EphA2 (endogenous, …). Briefly: SH2 domain array with thrombin-stimulated HUVEC lysate, anti-human EphA2 detection. The method, then:
as §1, §2

T1 sequence (P29317 24-976 limits assumed): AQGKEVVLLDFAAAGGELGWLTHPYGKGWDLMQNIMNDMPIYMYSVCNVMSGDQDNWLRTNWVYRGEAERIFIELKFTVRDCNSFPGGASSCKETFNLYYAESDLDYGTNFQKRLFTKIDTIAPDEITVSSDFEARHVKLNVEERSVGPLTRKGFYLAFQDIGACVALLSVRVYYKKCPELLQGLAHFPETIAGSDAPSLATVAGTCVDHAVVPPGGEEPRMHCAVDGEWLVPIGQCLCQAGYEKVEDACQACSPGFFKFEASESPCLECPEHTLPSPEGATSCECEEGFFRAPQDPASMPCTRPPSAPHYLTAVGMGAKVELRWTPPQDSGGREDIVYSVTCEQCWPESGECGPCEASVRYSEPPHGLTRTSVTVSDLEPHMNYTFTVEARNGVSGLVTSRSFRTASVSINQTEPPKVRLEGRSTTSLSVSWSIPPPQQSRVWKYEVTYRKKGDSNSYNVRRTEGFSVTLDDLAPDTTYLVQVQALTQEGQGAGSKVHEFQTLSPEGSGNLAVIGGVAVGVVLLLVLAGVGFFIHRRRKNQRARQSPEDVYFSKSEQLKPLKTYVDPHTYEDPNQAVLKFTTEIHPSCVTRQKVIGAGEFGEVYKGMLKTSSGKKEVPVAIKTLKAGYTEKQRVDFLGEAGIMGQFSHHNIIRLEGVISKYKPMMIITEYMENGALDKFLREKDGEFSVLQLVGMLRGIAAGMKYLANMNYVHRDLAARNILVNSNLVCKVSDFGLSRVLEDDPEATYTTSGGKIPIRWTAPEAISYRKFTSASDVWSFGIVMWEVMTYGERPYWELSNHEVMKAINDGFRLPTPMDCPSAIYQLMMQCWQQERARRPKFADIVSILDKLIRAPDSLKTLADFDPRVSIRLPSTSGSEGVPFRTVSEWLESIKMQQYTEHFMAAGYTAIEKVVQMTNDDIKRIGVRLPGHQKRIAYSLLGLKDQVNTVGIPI

B1: SH2 domain of Grap (other, UniProt Q13588 60-154, looked up)
chain: WYSGRISRQLAEEILMKRNHLGAFLIRESESSPGEFSVSVNYGDQVQHFKVLREASGKYFLWEEKFNSLNELVDFYRTTTIAKKRQIFLRDEEPL
notes: domain: SH2 domain
With B1, the binding result in assay [1] was “no binding”.

B2: SH2 domain of Btk (other, UniProt Q06187 281-377, looked up)
chain: WYSKHMTRSQAEQLLKQEGKEGGFIVRDSSKAGKYTVSVFAKSTGDPQGVIRHYVVCSTPQSQYYLAEKHLFSTIPELINYHQHNSAGLISRLKYPV
notes: domain: SH2 domain
Take B2: in assay [1], the binding result is “no binding”.

B3: SH2 domain of SHC3 (other, UniProt Q92529 499-590, looked up)
chain: WYQGEMSRKEAEGLLEKDGDFLVRKSTTNPGSFVLTGMHNGQAKHLLLVDPEGTIRTKDRVFDSISHLINHHLESSLPIVSAGSELCLQQPV
notes: domain: SH2 domain
B3: in assay [1], the binding result is “no binding”.

B4: SH2 domain of Lck (other, UniProt P06239 127-224, looked up)
chain: WFFKNLSRKDAERQLLAPGNTHGSFLIRESESTAGSFSLSVRDFDQNQGEVVKHYKIRNLDNGGFYISPRITFPGLHELVRHYTNASDGLCTRLSRPC
notes: domain: SH2 domain
For the molecule B4, the binding result in assay [1] is on record as “no binding”.

B5: SH2 domain of Nck2 (other, UniProt O43639 285-380, looked up)
chain: WYYGNVTRHQAECALNERGVEGDFLIRDSESSPSDFSVSLKASGKNKHFKVQLVDNVYCIGQRRFHTMDELVEHYKKAPIFTSEHGEKLYLVRALQ
notes: domain: SH2 domain
Regarding B5, the binding result in assay [1] was “no binding”.

B6: SH2 domain of Brdg1 (other, UniProt Q9ULZ2 177-280, looked up)
chain: ACFYTVSRKEATEMLQKNPSLGNMILRPGSDSRNYSITIRQEIDIPRIKHYKVMSVGQNYTIELEKPVTLPNLFSVIDYFVKETRGNLRPFICSTDENTGQEPS
notes: domain: SH2 domain
As for B6, the binding result in assay [1] is reported as “no binding”.

B7: SH2 domain of Hck (other, UniProt P08631 144-241, looked up)
chain: WFFKGISRKDAERQLLAPGNMLGSFMIRDSETTKGSYSLSVRDYDPRQGDTVKHYKIRTLDNGGFYISPRSTFSTLQELVDHYKKGNDGLCQKLSVPC
notes: domain: SH2 domain
For B7, the binding result in assay [1] is reported as “no binding”.

B8: SH2 domain of Abl1 (other, UniProt P00519 127-217, looked up)
chain: WYHGPVSRNAAEYLLSSGINGSFLVRESESSPGQRSISLRYEGRVYHYRINTASDGKLYVSSESRFNTLAELVHHHSTVADGLITTLHYPA
notes: domain: SH2 domain
Regarding B8, the binding result in assay [1] is on record as “no binding”.

B9: SH2 domain of Eat2 (other, UniProt O14796 5-101, looked up)
chain: YYHGRLTKQDCETLLLKEGVDGNFLLRDSESIPGVLCLCVSFKNIVYTYRIFREKHGYYRIQTAEGSPKQVFPSLKELISKFEKPNQGMVVHLLKPI
notes: domain: SH2 domain
Regarding B9, in assay [1], the binding result was “no binding”.

B10: SH2 domain of Matk (other, UniProt P42679 122-211, looked up)
chain: WFHGKISGQEAVQQLQPPEDGLFLVRESARHPGDYVLCVSFGRDVIHYRVLHRDGHLTIDEAVFFCNLMDMVEHYSKDKGAICTKLVRPK
notes: domain: SH2 domain
Regarding B10, the binding result in assay [1] is given as “no binding”.

B11: SH2 domain of Fgr (other, UniProt P09769 144-241, looked up)
chain: WYFGKIGRKDAERQLLSPGNPQGAFLIRESETTKGAYSLSIRDWDQTRGDHVKHYKIRKLDMGGYYITTRVQFNSVQELVQHYMEVNDGLCNLLIAPC
notes: domain: SH2 domain
B11: in assay [1], the binding result is on record as “no binding”.

B12: SH2 domain of SHC1 (other, UniProt P29353 488-579, looked up)
chain: WFHGKLSRREAEALLQLNGDFLVRESTTTPGQYVLTGLQSGQPKHLLLVDPEGVVRTKDHRFESVSHLISYHMDNHLPIISAGSELCLQQPV
notes: domain: SH2 domain
Take B12: the binding result in assay [1] is “no binding”.

B13: SH2 domain of Csk (other, UniProt P41240 82-171, looked up)
chain: WFHGKITREQAERLLYPPETGLFLVRESTNYPGDYTLCVSCDGKVEHYRIMYHASKLSIDEEVYFENLMQLVEHYTSDADGLCTRLIKPK
notes: domain: SH2 domain
With B13, in assay [1], the binding result was “no binding”.

B14: SH2 domain of RaLP (other, UniProt Q6S5L8 526-617, looked up)
chain: CYHGKLSRKAAESLLVKDGDFLVRESATSPGQYVLSGLQGGQAKHLLLVDPEGKVRTKDHVFDNVGHLIRYHMDNSLPIISSGSEVSLKQPV
notes: domain: SH2 domain
With B14, in assay [1], the binding result is reported as “no binding”.

B15: SH2 domain of SHC2 (other, UniProt P98077 487-578, looked up)
chain: WYHGRMSRRAAERMLRADGDFLVRDSVTNPGQYVLTGMHAGQPKHLLLVDPEGVVRTKDVLFESISHLIDHHLQNGQPIVAAESELHLRGVV
notes: domain: SH2 domain
Regarding B15, the binding result in assay [1] is reported as “no binding”.

B16: SH2 domain of Yes (other, UniProt P07947 158-255, looked up)
chain: WYFGKMGRKDAERLLLNPGNQRGIFLVRESETTKGAYSLSIRDWDEIRGDNVKHYKIRKLDNGGYYITTRAQFDTLQKLVKHYTEHADGLCHKLTTVC
notes: domain: SH2 domain
Consider B16, for which the binding result in assay [1] is listed as “no binding”.

B17: SH2 domain of Nck1 (other, UniProt P16333 282-376, looked up)
chain: WYYGKVTRHQAEMALNERGHEGDFLIRDSESSPNDFSVSLKAQGKNKHFKVQLKETVYCIGQRKFSTMEELVEHYKKAPIFTSEQGEKLYLVKHL
notes: domain: SH2 domain
As for B17, the binding result in assay [1] was “no binding”.

B18: SH2 domain of Fyn (other, UniProt P06241 149-246, looked up)
chain: WYFGKLGRKDAERQLLSFGNPRGTFLIRESETTKGAYSLSIRDWDDMKGDHVKHYKIRKLDNGGYYITTRAQFETLQQLVQHYSERAAGLCCRLVVPC
notes: domain: SH2 domain
For B18, the binding result in assay [1] is reported as “no binding”.

B19: SH2 domain of Stap2 (other, UniProt Q9UGK3 133-248, looked up)
chain: YMMSEVLAKEEARRALETPSCFLKVSRLEAQLLLERYPECGNLLLRPSGDGADGVSVTTRQMHNGTHVVRHYKVKREGPKYVIDVEQPFSCTSLDAVVNYFVSHTKKALVPFLLDE
notes: domain: SH2 domain
On to B19, for which the binding result in assay [1] is given as “no binding”.

B20: SH2 domain of Lyn (other, UniProt P07948 129-226, looked up)
chain: WFFKDITRKDAERQLLAPGNSAGAFLIRESETLKGSFSLSVRDFDPVHGDVIKHYKIRSLDNGGYYISPRITFPCISDMIKHYQKQADGLCRRLEKAC
notes: domain: SH2 domain
With B20, the binding result in assay [1] is listed as “no binding”.

B21: SH2 domain of Grb14 (other, UniProt Q14449 439-535, looked up)
chain: WFHHKISRDEAQRLIIQQGLVDGVFLVRDSQSNPKTFVLSMSHGQKIKHFQIIPVEDDGEMFHTLDDGHTRFTDLIQLVEFYQLNKGVLPCKLKHYC
notes: domain: SH2 domain
Take B21: the binding result in assay [1] is on record as “no binding”.

B22: SH2 domain of Crkl (other, UniProt P46109 14-102, looked up)
chain: WYMGPVSRQEAQTRLQGQRHGMFLVRDSSTCPGDYVLSVSENSRVSHYIINSLPNRRFKIGDQEFDHLPALLEFYKIHYLDTTTLIEPA
notes: domain: SH2 domain; also called Crk1
On to B22, for which, in assay [2], the binding result is reported as “binds”.

B23: SH2 domain of Fes (other, UniProt P07332 460-549, looked up)
chain: WYHGAIPRAEVAELLVHSGDFLVRESQGKQEYVLSVLWDGLPRHFIIQSLDNLYRLEGEGFPSIPLLIDHLLSTQQPLTKKSGVVLHRAV
notes: domain: SH2 domain
In the case of B23, in assay [1], the binding result was “no binding”.

B24: SH2 domain of TNS (other, UniProt Q9HBL0 1567-1676, looked up)
chain: WYKPEISREQAIALLKDQEPGAFIIRDSHSFRGAYGLAMKVSSPPPTIMQQNKKGDMTHELVRHFLIETGPRGVKLKGCPNEPNFGSLSALVYQHSIIPLALPCKLVIPN
notes: domain: SH2 domain
Take B24: the binding result in assay [1] is “no binding”.
